According to patent publication US20170320928A1 (WISCONSIN ALUMNI RESEARCH FOUNDATION, published 2017):
Read-outs that look alike come from different tables or passages of the source. Square brackets hold non-standard residues; d marks the D form. Primed or numbered codes have the meaning given here. Ends that are not written are not given here. ACPC = cyclic β-residue replacing an α-residue; APC = 3-aminopyrrolidine-4-carboxylic acid; ACPC″ = not defined here; APC″ = not defined here; Aib = CC(C)(N)C(=O)O

B1: α/β-Peptide SEQ. ID. NO: 7 (peptide)
peptide: H[Aib]EGTFTSD[Aib]S[ACPC]YLE[ACPC]QAA[ACPC]EFI[ACPC]WLV[APC]GRG-NH2
B2: SEQ. ID. NO: 13 (peptide)
peptide: HXEGTFTSDXSXYLEXQAAXEFIXWLVXGRG
modifications: C-terminal primary amide; non-natural residues are marked only by a key given as a drawing (CHEM-US-00002/00003), positions not readable in the text
B3: α/β-peptide SEQ. ID. NO: 6 (peptide)
peptide: HAEGTFT[ACPC″]DVS[ACPC″]YLE[ACPC″]QAA[ACPC″]EFI[ACPC″]WLV[APC″]GRG-NH2
modifications: reading uncertain

Columns and labels:
Assay in all cases: cell-based or functional assay
human GLP-1 receptor [1] = target: T1, human GLP-1 receptor (human, UniProt P43220 24-463)
human GLP-1 receptor [2] = target: T1, human GLP-1 receptor; remark: listed apart in the source
human GLP-1 receptor [3] = target: T1, human GLP-1 receptor; remark: listed apart in the source

Binder	EC50 (nM), cAMP production (human GLP-1 receptor [1]) [nM]	cAMP production, AVERAGES at M Concentrations: -7 (human GLP-1 receptor [1])	cAMP production, AVERAGES at M Concentrations: -8 (human GLP-1 receptor [1])	cAMP production, AVERAGES at M Concentrations: -9 (human GLP-1 receptor [1])	cAMP production, AVERAGES at M Concentrations: -10 (human GLP-1 receptor [1])	cAMP production, AVERAGES at M Concentrations: -11 (human GLP-1 receptor [1])	cAMP production, AVERAGES at M Concentrations: -12 (human GLP-1 receptor [1])	cAMP production, AVERAGES at M Concentrations: -13 (human GLP-1 receptor [1])	EC50 nM, cAMP production in HEK293 cells (human GLP-1 receptor [2]) [nM]	Max Response (% GLP-1 max), cAMP production (human GLP-1 receptor [2]) [% GLP-1 max]	EC50 (nM), cAMP production (human GLP-1 receptor [3]) [nM]
B1	3.2	88.3	63	35	4.47	3.5	2.81	3.83	3.2	88	
B2											> 100
B3		100	99.2	42.8	18		5.69	5.69	> 100		
